Data on two molecules can be found in patent US20100135951A1 (UAB RESEARCH FOUNDATION, published 2010).

The target of assay [1] is T1, cIAP1 (human, UniProt Q13490 1-618). Briefly: nickel bead pull-down of His-tagged DDX3 from transfected HEK293A cells, anti-cIAP1 Western blot.
Description: (§1) The transfected cells were incubated with 500 ng/ml TRA-8 overnight.
In assay [2] the target is T1, cIAP1. The experiment in a line: TRAIL-R2 co-IP from transfected TRA-8-resistant tumor cells, Western blot with anti-DDX3 and anti-cIAP1.
Description: as §1
Four type cells were transfected with DDX3ΔCARD. […] Furthermore, the susceptibility of transfected cells to TRA-8-mediated apoptosis was examined using the ATPLITE assay.

T1 sequence (Q13490 whole entry): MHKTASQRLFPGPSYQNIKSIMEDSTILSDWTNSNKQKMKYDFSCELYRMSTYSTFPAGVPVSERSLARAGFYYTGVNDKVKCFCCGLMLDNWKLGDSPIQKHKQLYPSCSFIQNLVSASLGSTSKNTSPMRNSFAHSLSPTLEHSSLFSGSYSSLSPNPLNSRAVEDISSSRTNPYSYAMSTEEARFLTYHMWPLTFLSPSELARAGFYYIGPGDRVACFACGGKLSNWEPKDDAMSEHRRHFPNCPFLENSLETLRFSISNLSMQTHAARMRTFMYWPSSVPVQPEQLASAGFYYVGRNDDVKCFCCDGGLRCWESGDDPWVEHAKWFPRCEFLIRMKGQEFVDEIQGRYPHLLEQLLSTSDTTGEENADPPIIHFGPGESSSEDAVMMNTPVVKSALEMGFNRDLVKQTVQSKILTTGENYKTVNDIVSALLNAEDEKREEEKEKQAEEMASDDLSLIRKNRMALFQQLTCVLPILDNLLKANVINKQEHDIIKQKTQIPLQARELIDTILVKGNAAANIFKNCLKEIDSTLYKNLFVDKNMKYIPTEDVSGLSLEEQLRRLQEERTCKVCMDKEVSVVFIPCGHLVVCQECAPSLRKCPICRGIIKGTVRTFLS

B1: DDX3Δ101-662 (other)
chain: RSDYDGIGSRGDRSGFGKFERGGNSRWCDKSDEDDWSKPLPPSERLEQELFSGGNTGINFEKYDDIPVEATGNNCPPHIESFSDVEMGEIIMGNIELTRYTRPTPVQKHAIPIIKEKRDLMACAQTGSGKTAAFLLPILSQIYSDGPGEALRAMKENGRYGRRKQYPISLVLAPTRELAVQIYEEARKFSYRSRVRPCVVYGGADIGQQIRDLERGCHLLVATPGRLVDMMERGKIGLDFCKYLVLDEADRMLDMGFEPQIRRIVEQDTMPPKGVRHTMMFSATFPKEIQMLARDFLDEYIFLAVGRVGSTSENITQKVVWVEESDKRSFLLDLLNATGKDSLTLVFVETKKGADSLEDFLYHEGYACTSIHGDRSQRDREEALHQFRSGKSPILVATAVAARGLDISNVKHVINFDLPSDIEEYVHRIGRTGRVGNLGLATSFFNERNINITKDLLDLLVEAKQEVPSWLENMAYEHHYKGSSRGRSKSSRFSGGFGARDYRQSSGASSSSFSSSRASSSRSGGGGHGSSRGFGGGGYGGFYNSDGYGGNYNSQGVDWWGN
notes: Transfected into HEK293A cells and pulled down with nickel beads; also called the DDX3 with the first 100 aa deleted; N-terminal aa 1-aa 100 deleted DDX3; not shown: N-terminal 6-His tag of the pcDNA3.1-His vector
As to B1, in the assay with cIAP1 [1], the binding result is reported as “no binding”.

B2: DDX3ΔCARD (DDX3Δ151-662) (other)
chain: FSGGNTGINFEKYDDIPVEATGNNCPPHIESFSDVEMGEIIMGNIELTRYTRPTPVQKHAIPIIKEKRDLMACAQTGSGKTAAFLLPILSQIYSDGPGEALRAMKENGRYGRRKQYPISLVLAPTRELAVQIYEEARKFSYRSRVRPCVVYGGADIGQQIRDLERGCHLLVATPGRLVDMMERGKIGLDFCKYLVLDEADRMLDMGFEPQIRRIVEQDTMPPKGVRHTMMFSATFPKEIQMLARDFLDEYIFLAVGRVGSTSENITQKVVWVEESDKRSFLLDLLNATGKDSLTLVFVETKKGADSLEDFLYHEGYACTSIHGDRSQRDREEALHQFRSGKSPILVATAVAARGLDISNVKHVINFDLPSDIEEYVHRIGRTGRVGNLGLATSFFNERNINITKDLLDLLVEAKQEVPSWLENMAYEHHYKGSSRGRSKSSRFSGGFGARDYRQSSGASSSSFSSSRASSSRSGGGGHGSSRGFGGGGYGGFYNSDGYGGNYNSQGVDWWGN
notes: also called CARD-truncated DDX3; dominant negative mutant DDX3 lacking aa 1-150
In the case of B2, the binding result with cIAP1 [2] is listed as “no binding”.
